Experimental findings from patent US20240294593A1 (Genentech, published 2024) are described below.

Residue numbers refer to the chain shown, from its start. Numbers in names are those of the source.

B1: H1.71_L1 (antibody, human IgG1, kappa, V domains shown)
VH: EVQLVESGGGLVQPGGSLRLSCAASGFTFSSFGMHWVRQAPGKGLEWVSYISSGSTIIYYADSVKGRFTISRDNAKNSLYLQMNSLRAEDTAVYYCARGGRLVWSPDYWGQGTLVTVSS
VL: DIVMTQSPDSLAVSLGERATINCKSSQSLLNSGNQKNYLTWYQQKPGQPPKLLIYWASTRESGVPDRFTGSGSGTDFTLTISSLQAEDVAVYYCQNDYSYPFTFGSGTKLEIKR
notes: also called VH-S60T; Kabat 55; copies: 2 + 2
B2: H1.72_L1 (antibody, human IgG1, kappa, V domains shown)
VH: B1 VH with T56A
VL: B1 VL
notes: also called VH-S60A; Kabat 55; copies: 2 + 2
B3: H1.1_L1 (antibody, human IgG1, kappa, V domains shown)
VH: B1 VH with S30T, T56S
VL: B1 VL
notes: also called VH-S30T; Kabat 30T; copies: 2 + 2
B4: H1.9_L1 (antibody, human IgG1, kappa, V domains shown)
VH: B1 VH with S31T, T56S
VL: B1 VL
notes: also called VH-S31T; Kabat 31T; copies: 2 + 2
B5: H1.25_L1 (antibody, human IgG1, kappa, V domains shown)
VH: B1 VH with F32K, T56S
VL: B1 VL
notes: also called VH-F34K; Kabat 32K; copies: 2 + 2
B6: H1.16_L1 (antibody, human IgG1, kappa, V domains shown)
VH: B1 VH with S31K, T56S
VL: B1 VL
notes: also called VH-S31K; Kabat 31K; copies: 2 + 2
B7: H1.5_L1 (antibody, human IgG1, kappa, V domains shown)
VH: B1 VH with S30V, T56S
VL: B1 VL
notes: also called VH-S30V; Kabat 30V; copies: 2 + 2
B8: H1.28_L1 (antibody, human IgG1, kappa, V domains shown)
VH: B1 VH with G33T, T56S
VL: B1 VL
notes: also called VH-G35T; Kabat 33T; copies: 2 + 2
B9: H1.22_L1 (antibody, human IgG1, kappa, V domains shown)
VH: B1 VH with F32H, T56S
VL: B1 VL
notes: also called VH-F34H; Kabat 32H; copies: 2 + 2
B10: H1.11_L1 (antibody, human IgG1, kappa, V domains shown)
VH: B1 VH with S31Q, T56S
VL: B1 VL
notes: also called VH-S31Q; Kabat 31Q; copies: 2 + 2
B11: H1.14_L1 (antibody, human IgG1, kappa, V domains shown)
VH: B1 VH with S31H, T56S
VL: B1 VL
notes: also called VH-S31H; Kabat 31H; copies: 2 + 2
B12: H1.12_L1 (antibody, human IgG1, kappa, V domains shown)
VH: B1 VH with S31G, T56S
VL: B1 VL
notes: also called VH-S31G; Kabat 31G; copies: 2 + 2
B13: H1.4_L1 (antibody, human IgG1, kappa, V domains shown)
VH: B1 VH with S30G, T56S
VL: B1 VL
notes: also called VH-S30G; Kabat 30G; copies: 2 + 2
B14: H1.18_L1 (antibody, human IgG1, kappa, V domains shown)
VH: B1 VH with F32Y, T56S
VL: B1 VL
notes: also called VH-F34Y; Kabat 32Y; copies: 2 + 2
B15: H1.27_L1 (antibody, human IgG1, kappa, V domains shown)
VH: B1 VH with G33S, T56S
VL: B1 VL
notes: also called VH-G35S; Kabat 33S; copies: 2 + 2
B16: H1.36_L1 (antibody, human IgG1, kappa, V domains shown)
VH: B1 VH with S52T, T56S
VL: B1 VL
notes: also called VH-S54T; Kabat 52T; copies: 2 + 2
B17: H1.15_L1 (antibody, human IgG1, kappa, V domains shown)
VH: B1 VH with S31D, T56S
VL: B1 VL
notes: also called VH-S31D; Kabat 31D; copies: 2 + 2
B18: H1.29_L1 (antibody, human IgG1, kappa, V domains shown)
VH: B1 VH with G33N, T56S
VL: B1 VL
notes: also called VH-G35N; Kabat 33N
B19: H1.26_L1 (antibody, human IgG1, kappa, V domains shown)
VH: B1 VH with G33A, T56S
VL: B1 VL
notes: also called VH-G35A; Kabat 33A; copies: 2 + 2
B20: H1.13_L1 (antibody, human IgG1, kappa, V domains shown)
VH: B1 VH with S31V, T56S
VL: B1 VL
notes: also called VH-S31V; Kabat 31V; copies: 2 + 2
B21: H1.8_L1 (antibody, human IgG1, kappa, V domains shown)
VH: B1 VH with S30Y, T56S
VL: B1 VL
notes: also called VH-S30Y; Kabat 30Y
B22: H1.10_L1 (antibody, human IgG1, kappa, V domains shown)
VH: B1 VH with S31A, T56S
VL: B1 VL
notes: also called VH-S31A; Kabat 31A; copies: 2 + 2
B23: H1.20_L1 (antibody, human IgG1, kappa, V domains shown)
VH: B1 VH with F32W, T56S
VL: B1 VL
notes: also called VH-F34W; Kabat 32W; copies: 2 + 2
B24: H1.21_L1 (antibody, human IgG1, kappa, V domains shown)
VH: B1 VH with F32I, T56S
VL: B1 VL
notes: also called VH-F34I; Kabat 32I; copies: 2 + 2
B25: H1.7_L1 (antibody, human IgG1, kappa, V domains shown)
VH: B1 VH with S30K, T56S
VL: B1 VL
notes: also called VH-S30K; Kabat 30K; copies: 2 + 2
B26: H1.30_L1 (antibody, human IgG1, kappa, V domains shown)
VH: B1 VH with G33H, T56S
VL: B1 VL
notes: also called VH-G35H; Kabat 33H
B27: H1.2_L1 (antibody, human IgG1, kappa, V domains shown)
VH: B1 VH with S30A, T56S
VL: B1 VL
notes: also called VH-S30A; Kabat 30A; copies: 2 + 2
B28: H1.31_L1 (antibody, human IgG1, kappa, V domains shown)
VH: B1 VH with G33D, T56S
VL: B1 VL
notes: also called VH-G35D; Kabat 33D; copies: 2 + 2
B29: H1.17_L1 (antibody, human IgG1, kappa, V domains shown)
VH: B1 VH with S31Y, T56S
VL: B1 VL
notes: also called VH-S31Y; Kabat 31Y; copies: 2 + 2
B30: H1.24_L1 (antibody, human IgG1, kappa, V domains shown)
VH: B1 VH with F32S, T56S
VL: B1 VL
notes: also called VH-F34S; Kabat 32S; copies: 2 + 2
B31: H1.3_L1 (antibody, human IgG1, kappa, V domains shown)
VH: B1 VH with S30Q, T56S
VL: B1 VL
notes: also called VH-S30Q; Kabat 30Q; copies: 2 + 2
B32: H1.6_L1 (antibody, human IgG1, kappa, V domains shown)
VH: B1 VH with S30H, T56S
VL: B1 VL
notes: also called VH-S30H; Kabat 30H; copies: 2 + 2
B33: H1.23_L1 (antibody, human IgG1, kappa, V domains shown)
VH: B1 VH with F32Q, T56S
VL: B1 VL
notes: also called VH-F34Q; Kabat 32Q

The target in the first experiment is T1, human PD-1-His (human, UniProt Q15116 25-167, limits assumed).
T1 construct: Antigen of the Octet assays; not shown: His tag
T1 sequence (Q15116 25-167 limits assumed): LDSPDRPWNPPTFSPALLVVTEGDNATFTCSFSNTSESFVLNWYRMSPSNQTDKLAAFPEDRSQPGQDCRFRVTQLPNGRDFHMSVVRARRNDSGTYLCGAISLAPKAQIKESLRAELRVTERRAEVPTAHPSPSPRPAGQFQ
Briefly: Octet.
Turning to B1, binding was put at a Kd of 45.8 nM, the off-rate (koff) was determined as 0.00505 s⁻¹ and the kon is 110000 M⁻¹ s⁻¹.

B2 registered an equilibrium dissociation constant (Kd) of 62.5 nM, a koff of 0.00701 s⁻¹ and a kon of 112000 M⁻¹ s⁻¹.

For a further experiment, the target named is T1, human PD-1-His. Briefly: Octet. This is another data set of the same source.
In the case of B3, the Kd came out at 32.1 nM, the koff came out at 0.00407 s⁻¹ and the kon was determined as 127000 M⁻¹ s⁻¹.

Molecule B4 had a Kd of 46.9 nM, a koff of 0.00567 s⁻¹ and an on-rate (kon) of 121000 M⁻¹ s⁻¹.

Consider B5, for which binding was characterised by a dissociation constant (Kd) of 113 nM, the koff is 0.012 s⁻¹ and the kon is 107000 M⁻¹ s⁻¹.

Molecule B6 came in with a Kd of 47.1 nM, an off-rate constant (koff) of 0.00514 s⁻¹ and a kon of 109000 M⁻¹ s⁻¹.

Take B7: binding was characterised by a dissociation constant (Kd) of 37.4 nM, the koff turned out to be 0.00475 s⁻¹ and the kon turned out to be 127000 M⁻¹ s⁻¹.

Consider B8, for which the Kd was 92.7 nM, the dissociation rate constant (koff) is 0.0279 s⁻¹ and the kon was 301000 M⁻¹ s⁻¹.

In turn, B9 returned a Kd of 34 nM, a koff of 0.00358 s⁻¹ and a kon of 105000 M⁻¹ s⁻¹.

The molecule B10 yielded a Kd of 36.8 nM, a koff of 0.00454 s⁻¹ and an association rate constant (kon) of 123000 M⁻¹ s⁻¹.

Molecule B11 returned a Kd of 45.8 nM, a koff of 0.00546 s⁻¹ and a kon of 119000 M⁻¹ s⁻¹.

B12 displayed a Kd of 44.2 nM, a koff of 0.00537 s⁻¹ and an on-rate constant (kon) of 122000 M⁻¹ s⁻¹.

On to B13, for which the Kd stood at 34 nM, the koff came to 0.00422 s⁻¹ and the kon is 124000 M⁻¹ s⁻¹.

Take B14: the Kd stood at 47.9 nM, the dissociation rate constant (koff) came to 0.00597 s⁻¹ and the kon was found to be 125000 M⁻¹ s⁻¹.

As to B15, binding was put at a Kd of 104 nM, the koff amounted to 0.0142 s⁻¹ and the kon came to 137000 M⁻¹ s⁻¹.

The molecule B16 yielded a Kd of 374 nM, a koff of 0.046 s⁻¹ and an on-rate (kon) of 123000 M⁻¹ s⁻¹.

As for B17, the Kd is 40 nM, the koff stood at 0.00557 s⁻¹ and the kon was 139000 M⁻¹ s⁻¹.

With B18, the dissociation constant Kd came out at 223 nM, the dissociation rate constant (koff) came to 0.0437 s⁻¹ and the kon worked out at 196000 M⁻¹ s⁻¹.

Take B19: the Kd came to 193 nM, the koff came to 0.036 s⁻¹ and the kon worked out at 187000 M⁻¹ s⁻¹.

In turn, B20 registered a Kd of 50.2 nM, a koff of 0.00634 s⁻¹ and a kon of 126000 M⁻¹ s⁻¹.

Turning to B21, the Kd turned out to be 51.3 nM, the off-rate (koff) came to 0.00534 s⁻¹ and the kon was found to be 104000 M⁻¹ s⁻¹.

As for B22, the Kd worked out at 36.9 nM, the koff came out at 0.00425 s⁻¹ and the kon amounted to 115000 M⁻¹ s⁻¹.

The molecule B23 displayed an equilibrium dissociation constant (Kd) of 162 nM, a koff of 0.0204 s⁻¹ and a kon of 126000 M⁻¹ s⁻¹.

On to B24, for which the Kd amounted to 27.2 nM, the koff was determined as 0.00371 s⁻¹ and the kon was 137000 M⁻¹ s⁻¹.

In turn, B25 registered a Kd of 52.5 nM, a koff of 0.00545 s⁻¹ and a kon of 104000 M⁻¹ s⁻¹.

B26 came in with a Kd of 76.4 nM, a koff of 0.0257 s⁻¹ and a kon of 337000 M⁻¹ s⁻¹.

In turn, B27 had a Kd of 35.6 nM, a koff of 0.00432 s⁻¹ and a kon of 121000 M⁻¹ s⁻¹.

In turn, B28 displayed an equilibrium dissociation constant (Kd) of 56.4 nM, a koff of 0.0401 s⁻¹ and a kon of 711000 M⁻¹ s⁻¹.

B29 registered an equilibrium dissociation constant (Kd) of 50.4 nM, a koff of 0.00534 s⁻¹ and an on-rate constant (kon) of 106000 M⁻¹ s⁻¹.

In the case of B30, the Kd was 54.9 nM, the koff was 0.00688 s⁻¹ and the kon is 125000 M⁻¹ s⁻¹.

For B31, the Kd was 40 nM, the koff amounted to 0.00472 s⁻¹ and the kon came to 118000 M⁻¹ s⁻¹.

For B32, the Kd turned out to be 48.5 nM, the koff is 0.00529 s⁻¹ and the kon was found to be 109000 M⁻¹ s⁻¹.

B33 yielded a dissociation constant (Kd) of 73.4 nM, a koff of 0.00863 s⁻¹ and a kon of 118000 M⁻¹ s⁻¹.
